Assay results as given in IntAct's records for PubMed 22902367.

B1: Nectin-1 (Homo sapiens), Q15223 (parent)
chain: MARMGLAGAAGRWWGLALGLTAFFLPGVHSQVVQVNDSMYGFIGTDVVLHCSFANPLPSVKITQVTWQKSTNGSKQNVAIYNPSMGVSVLAPYRERVEFLRPSFTDGTIRLSRLELEDEGVYICEFATFPTGNRESQLNLTVMAKPTNWIEGTQAVLRAKKGQDDKVLVATCTSANGKPPSVVSWETRLKGEAEYQEIRNPNGTVTVISRYRLVPSREAHQQSLACIVNYHMDRFKESLTLNVQYEPEVTIEGFDGNWYLQRMDVKLTCKADANPPATEYHWTTLNGSLPKGVEAQNRTLFFKGPINYSLAGTYICEATNPIGTRSGQVEVNITEFPYTPSPPEHGRRAGPVPTAIIGGVAGSILLVLIVVGGIVVALRRRRHTFKGDYSTKKHVYGNGYSKAGIPQHHPPMAQNLQYPDDSDDEKKAGPLGGSSYEEEEEEEEGGGGGERKVGGPHPKYDEDAKRPYFTVDEAEARQDGYGDRTLGYQYDPEQLDLAENMVSQNDGSFISKKEWYV

Variants of: B1
Conditions: with NECTIN3, Q9NQS3-1
NECTIN3, Q9NQS3-1, sequence (Q9NQS3 whole entry, looked up): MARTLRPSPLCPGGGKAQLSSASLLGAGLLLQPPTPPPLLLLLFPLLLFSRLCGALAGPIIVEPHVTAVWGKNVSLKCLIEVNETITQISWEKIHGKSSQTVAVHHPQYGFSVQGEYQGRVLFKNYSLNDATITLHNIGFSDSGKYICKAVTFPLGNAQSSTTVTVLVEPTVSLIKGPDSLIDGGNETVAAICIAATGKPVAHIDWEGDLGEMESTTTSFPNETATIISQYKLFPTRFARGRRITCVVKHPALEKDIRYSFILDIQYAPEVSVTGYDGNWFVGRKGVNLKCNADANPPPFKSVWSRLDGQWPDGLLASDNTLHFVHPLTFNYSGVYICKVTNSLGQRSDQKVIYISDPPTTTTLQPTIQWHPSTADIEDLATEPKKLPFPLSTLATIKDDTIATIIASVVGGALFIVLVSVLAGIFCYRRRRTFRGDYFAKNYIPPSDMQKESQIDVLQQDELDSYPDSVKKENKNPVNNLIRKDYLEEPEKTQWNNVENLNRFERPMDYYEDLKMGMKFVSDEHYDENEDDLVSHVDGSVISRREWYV

| effect of a mutation on the interaction | Variant |
| --- | --- |
| disrupting interaction strength | MARMGLAGAAGRWWGLALGLTAFFLPGVHSQVVQVNDSMYGFIGTDVVLHCSFANPLPSVKITQVTWQKSTNGSKQNVAIYNPSMGVSVLAPYRERVEFLRPSFTDGTIRLSRLELEDEGVYICEFATDPTGNRESQLNLTVMAKPTNWIEGTQAVLRAKKGQDDKVLVATCTSANGKPPSVVSWETRLKGEAEYQEIRNPNGTVTVISRYRLVPSREAHQQSLACIVNYHMDRFKESLTLNVQYEPEVTIEGFDGNWYLQRMDVKLTCKADANPPATEYHWTTLNGSLPKGVEAQNRTLFFKGPINYSLAGTYICEATNPIGTRSGQVEVNITEFPYTPSPPEHGRRAGPVPTAIIGGVAGSILLVLIVVGGIVVALRRRRHTFKGDYSTKKHVYGNGYSKAGIPQHHPPMAQNLQYPDDSDDEKKAGPLGGSSYEEEEEEEEGGGGGERKVGGPHPKYDEDAKRPYFTVDEAEARQDGYGDRTLGYQYDPEQLDLAENMVSQNDGSFISKKEWYV [F129D] |

Variants of: B1
Conditions: with nect4_human NECTIN4, Q96NY8
nect4_human NECTIN4, Q96NY8, sequence (Q96NY8 whole entry): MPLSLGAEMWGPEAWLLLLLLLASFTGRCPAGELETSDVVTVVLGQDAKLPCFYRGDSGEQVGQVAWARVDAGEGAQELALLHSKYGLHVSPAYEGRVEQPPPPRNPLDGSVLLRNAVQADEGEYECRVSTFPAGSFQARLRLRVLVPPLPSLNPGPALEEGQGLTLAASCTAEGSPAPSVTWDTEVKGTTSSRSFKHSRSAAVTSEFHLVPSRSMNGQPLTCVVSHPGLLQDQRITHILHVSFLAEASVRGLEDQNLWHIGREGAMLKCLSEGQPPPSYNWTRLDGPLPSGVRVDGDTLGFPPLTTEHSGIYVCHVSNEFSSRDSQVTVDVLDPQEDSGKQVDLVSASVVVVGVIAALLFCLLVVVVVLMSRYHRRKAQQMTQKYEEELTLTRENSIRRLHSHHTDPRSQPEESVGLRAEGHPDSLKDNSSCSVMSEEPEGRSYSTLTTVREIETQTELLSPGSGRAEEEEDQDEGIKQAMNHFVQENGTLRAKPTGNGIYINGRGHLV

| effect of a mutation on the interaction | Variant |
| --- | --- |
| disrupting interaction strength | MARMGLAGAAGRWWGLALGLTAFFLPGVHSQVVQVNDSMYGFIGTDVVLHCSFANPLPSVKITQVTWQKSTNGSKQNVAIYNPSMGVSVLAPYRERVEFLRPSFTDGTIRLSRLELEDEGVYICEFATDPTGNRESQLNLTVMAKPTNWIEGTQAVLRAKKGQDDKVLVATCTSANGKPPSVVSWETRLKGEAEYQEIRNPNGTVTVISRYRLVPSREAHQQSLACIVNYHMDRFKESLTLNVQYEPEVTIEGFDGNWYLQRMDVKLTCKADANPPATEYHWTTLNGSLPKGVEAQNRTLFFKGPINYSLAGTYICEATNPIGTRSGQVEVNITEFPYTPSPPEHGRRAGPVPTAIIGGVAGSILLVLIVVGGIVVALRRRRHTFKGDYSTKKHVYGNGYSKAGIPQHHPPMAQNLQYPDDSDDEKKAGPLGGSSYEEEEEEEEGGGGGERKVGGPHPKYDEDAKRPYFTVDEAEARQDGYGDRTLGYQYDPEQLDLAENMVSQNDGSFISKKEWYV [F129D] |
